Laboratory results taken from patent publication US20170015742A1 (published 2017).

Legend:
[1] = target: recombinant human VEGF165 (human, UniProt P15692 207-395); experiment: cell-based or functional assay
[2] = target: recombinant human PDGF-BB (human, UniProt P01127 82-190); experiment: cell-based or functional assay
Chain of recombinant human PDGF-BB (P01127 82-190 limits assumed): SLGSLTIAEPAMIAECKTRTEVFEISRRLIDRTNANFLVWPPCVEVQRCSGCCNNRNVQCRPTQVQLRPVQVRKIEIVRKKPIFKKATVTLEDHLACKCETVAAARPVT

Chain of recombinant human VEGF165 (P15692 other isoform, or with tags, fused parts or gaps limits assumed): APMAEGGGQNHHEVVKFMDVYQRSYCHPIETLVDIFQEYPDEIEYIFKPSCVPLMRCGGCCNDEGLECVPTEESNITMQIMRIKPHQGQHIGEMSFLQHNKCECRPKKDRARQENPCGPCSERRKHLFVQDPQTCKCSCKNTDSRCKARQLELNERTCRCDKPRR

Row | Potency IC50 (nM) HMVEC-d hVEGF165 [1] [nM] | Potency IC50 (nM) NIH-3T3 hPDGF-BB [2] [nM] | Binder
1 | 0.897 | 0.131 | 9E8.4_GS_1E3.4 (bispecific antibody, human IgG1, kappa, L234A L235A) heavy: EVTLRESGPALVKPTQTLTLTCTFSGFSLSTYGMGVGWIRQPPGKALEWLANIWWDDDKYYNPSLKNRLTISKDTSKNQVVLTMTNMDPVDTATYYCARIESIGTTYSFDYWGQGTMVTVSSGGGGSGGGGSEIQLVQSGSELKKPGASVKVSCKASGYPFTNSGMYWVKQAPGQGLEYMGWINTEAGKPTYADDFKGRFVFSLDTSVSTAYLQISSLKAEDTAVYFCARWGYISDNSYGWFDYWGQGTLVTVSSASTKGPSVFPLAPSSKSTSGGTAALGCLVKDYFPEPVTVSWNSGALTSGVHTFPAVLQSSGLYSLSSVVTVPSSSLGTQTYICNVNHKPSNTKVDKKVEPKSCDKTHTCPPCPAPEAAGGPSVFLFPPKPKDTLMISRTPEVTCVVVDVSHEDPEVKFNWYVDGVEVHNAKTKPREEQYNSTYRVVSVLTVLHQDWLNGKEYKCKVSNKALPAPIEKTISKAKGQPREPQVYTLPPSREEMTKNQVSLTCLVKGFYPSDIAVEWESNGQPENNYKTTPPVLDSDGSFFLYSKLTVDKSRWQQGNVFSCSVMHEALHNAYTQKSLSLSPGK light: EFVLTQSPGTLSLSPGERATLSCERSSGDIGDSYVSWYQQKPGQAPRLVIYADDQRPSGIPDRFSGSGSGTDFTLTISRLEPEDFAVYYCQSYDINIDIVFGGGTKVEIKGGSGGGGSGGATQLTQSPSSLSASVGDRVTISCRASEGVYSYMHWYQQKPGKQPKLLIYKASNLASGVPSRFSGSGSGTDFTLTISSLQPEDFATYFCHQNWNDPLTFGQGTKLEIKRTVAAPSVFIFPPSDEQLKSGTASVVCLLNNFYPREAKVQWKVDNALQSGNSQESVTEQDSKDSTYSLSSTLTLSKADYEKHKVYACEVTHQGLSSPVTKSFNRGEC
2 | 0.069 | 4.83 | 4G8.5_GS_9E8.4 (bispecific antibody, human IgG1, kappa, L234A L235A) heavy: EIQLVQSGSELKKPGASVKVSCKASGYTFTNYGMYWVRQAPGQGLEYMGWINTETGKPTYADDFKGRFVFSLDTSVSTAYLQISSLKAEDTAVYFCARTNYYYRSYIFYFDYWGQGTMVTVSSGGGGSGGGGSEVTLRESGPALVKPTQTLTLTCTFSGFSLSTYGMGVGWIRQPPGKALEWLANIWWDDDKYYNPSLKNRLTISKDTSKNQVVLTMTNMDPVDTATYYCARIESIGTTYSFDYWGQGTMVTVSSASTKGPSVFPLAPSSKSTSGGTAALGCLVKDYFPEPVTVSWNSGALTSGVHTFPAVLQSSGLYSLSSVVTVPSSSLGTQTYICNVNHKPSNTKVDKKVEPKSCDKTHTCPPCPAPEAAGGPSVFLFPPKPKDTLMISRTPEVTCVVVDVSHEDPEVKFNWYVDGVEVHNAKTKPREEQYNSTYRVVSVLTVLHQDWLNGKEYKCKVSNKALPAPIEKTISKAKGQPREPQVYTLPPSREEMTKNQVSLTCLVKGFYPSDIAVEWESNGQPENNYKTTPPVLDSDGSFFLYSKLTVDKSRWQQGNVFSCSVMHEALHNAYTQKSLSLSPGK light: ATQLTQSPSLSASVGDRVTITCRASESVSTHMHWYQQKPGKQPKLLIYGASNLESGVPSRFSGSGSGTDFTLTISSLQPEDFATYFCQQSWNDPFTFGQGTKLEIKGGSGGGGSGGEFVLTQSPGTLSLSPGERATLSCERSSGDIGDSYVSWYQQKPGQAPRLVIYADDQRPSGIPDRFSGSGSGTDFTLTISRLEPEDFAVYYCQSYDINIDIVFGGGTKVEIKRTVAAPSVFIFPPSDEQLKSGTASVVCLLNNFYPREAKVQWKVDNALQSGNSQESVTEQDSKDSTYSLSSTLTLSKADYEKHKVYACEVTHQGLSSPVTKSFNRGEC
3 | 0.05 | 0.037 | 9E10.6_GS_CL-33675 (bispecific antibody, human IgG1, kappa, L234A L235A) heavy: EVQLVQSGAEVKKPGSSVKVSCKASGYTFTNYGMYWVRQAPGQGLEWMGWIDTETGRPTYADDFKGRFTFTADKSTSTAYMELSSLRSEDTAVYYCARWSGDTTGIRGPWFAYWGQGTLVTVSSGGGGSGGGGSEVTLRESGPALVKPTQTLTLTCTFSGFSLSTYGMGVGWIRQPPGKALEWLANIWWDDDKYYNPSLKNRLTISKDTSKNQVVLTMTNMDPVDTATYYCARIESSGPKYSFDYWGQGTMVTVSSASTKGPSVFPLAPSSKSTSGGTAALGCLVKDYFPEPVTVSWNSGALTSGVHTFPAVLQSSGLYSLSSVVTVPSSSLGTQTYICNVNHKPSNTKVDKKVEPKSCDKTHTCPPCPAPEAAGGPSVFLFPPKPKDTLMISRTPEVTCVVVDVSHEDPEVKFNWYVDGVEVHNAKTKPREEQYNSTYRVVSVLTVLHQDWLNGKEYKCKVSNKALPAPIEKTISKAKGQPREPQVYTLPPSREEMTKNQVSLTCLVKGFYPSDIAVEWESNGQPENNYKTTPPVLDSDGSFFLYSKLTVDKSRWQQGNVFSCSVMHEALHNAYTQKSLSLSPGK light: DIRMTQSPSSLSASVGDRVTITCLASEDIYSDLAWYQQKPGKSPKLLIYNANGLQNGVPSRFSGSGSGTDYTLTISSLQPEDVATYFCQQYNYFPGTFGQGTKLEIKGGSGGGGSGGEIVLTQSPGTLSLSPGERATLSCRASSGSIWYSFVSWYQQKPGQAPRLLIYADDQRASGIPDRFSGSGSGTDFTLTISRLEPEDFAVYYCQSYGINIDVVFGGGTKVEIKRTVAAPSVFIFPPSDEQLKSGTASVVCLLNNFYPREAKVQWKVDNALQSGNSQESVTEQDSKDSTYSLSSTLTLSKADYEKHKVYACEVTHQGLSSPVTKSFNRGEC
4 | 0.059 | 1.91 | 9E10.1_GS_9E8.4 (bispecific antibody, human IgG1, kappa, L234A L235A) heavy: EIQLVQSGSELKKPGASVKVSCKASGYTFTNYGMYWVKQAPGQGLEYMGWIDTETGRPTYADDFKGRFVFSLDTSVSTAYLQISSLKAEDTAVYFCARWSGDTTGIRGPWFAYWGQGTLVTVSSGGGGSGGGGSEVTLRESGPALVKPTQTLTLTCTFSGFSLSTYGMGVGWIRQPPGKALEWLANIWWDDDKYYNPSLKNRLTISKDTSKNQVVLTMTNMDPVDTATYYCARIESIGTTYSFDYWGQGTMVTVSSASTKGPSVFPLAPSSKSTSGGTAALGCLVKDYFPEPVTVSWNSGALTSGVHTFPAVLQSSGLYSLSSVVTVPSSSLGTQTYICNVNHKPSNTKVDKKVEPKSCDKTHTCPPCPAPEAAGGPSVFLFPPKPKDTLMISRTPEVTCVVVDVSHEDPEVKFNWYVDGVEVHNAKTKPREEQYNSTYRVVSVLTVLHQDWLNGKEYKCKVSNKALPAPIEKTISKAKGQPREPQVYTLPPSREEMTKNQVSLTCLVKGFYPSDIAVEWESNGQPENNYKTTPPVLDSDGSFFLYSKLTVDKSRWQQGNVFSCSVMHEALHNAYTQKSLSLSPGK light: DIRMTQSPSSLSASVGDRVTIECLASEDIYSDLAWYQQKPGKSPKLLIYNANGLQNGVPSRFSGSGSGTDYSLTISSLQPEDVATYFCQQYNYFPGTFGQGTKLEIKGGSGGGGSGGEFVLTQSPGTLSLSPGERATLSCERSSGDIGDSYVSWYQQKPGQAPRLVIYADDQRPSGIPDRFSGSGSGTDFTLTISRLEPEDFAVYYCQSYDINIDIVFGGGTKVEIKRTVAAPSVFIFPPSDEQLKSGTASVVCLLNNFYPREAKVQWKVDNALQSGNSQESVTEQDSKDSTYSLSSTLTLSKADYEKHKVYACEVTHQGLSSPVTKSFNRGEC
5 | 0.049 | 1.14 | 9E10.6_GS_9E8.4 (bispecific antibody, human IgG1, kappa, L234A L235A) heavy: EVQLVQSGAEVKKPGSSVKVSCKASGYTFTNYGMYWVRQAPGQGLEWMGWIDTETGRPTYADDFKGRFTFTADKSTSTAYMELSSLRSEDTAVYYCARWSGDTTGIRGPWFAYWGQGTLVTVSSGGGGSGGGGSEVTLRESGPALVKPTQTLTLTCTFSGFSLSTYGMGVGWIRQPPGKALEWLANIWWDDDKYYNPSLKNRLTISKDTSKNQVVLTMTNMDPVDTATYYCARIESIGTTYSFDYWGQGTMVTVSSASTKGPSVFPLAPSSKSTSGGTAALGCLVKDYFPEPVTVSWNSGALTSGVHTFPAVLQSSGLYSLSSVVTVPSSSLGTQTYICNVNHKPSNTKVDKKVEPKSCDKTHTCPPCPAPEAAGGPSVFLFPPKPKDTLMISRTPEVTCVVVDVSHEDPEVKFNWYVDGVEVHNAKTKPREEQYNSTYRVVSVLTVLHQDWLNGKEYKCKVSNKALPAPIEKTISKAKGQPREPQVYTLPPSREEMTKNQVSLTCLVKGFYPSDIAVEWESNGQPENNYKTTPPVLDSDGSFFLYSKLTVDKSRWQQGNVFSCSVMHEALHNAYTQKSLSLSPGK light: DIRMTQSPSSLSASVGDRVTITCLASEDIYSDLAWYQQKPGKSPKLLIYNANGLQNGVPSRFSGSGSGTDYTLTISSLQPEDVATYFCQQYNYFPGTFGQGTKLEIKGGSGGGGSGGEFVLTQSPGTLSLSPGERATLSCERSSGDIGDSYVSWYQQKPGQAPRLVIYADDQRPSGIPDRFSGSGSGTDFTLTISRLEPEDFAVYYCQSYDINIDIVFGGGTKVEIKRTVAAPSVFIFPPSDEQLKSGTASVVCLLNNFYPREAKVQWKVDNALQSGNSQESVTEQDSKDSTYSLSSTLTLSKADYEKHKVYACEVTHQGLSSPVTKSFNRGEC
6 | 0.127 | 0.678 | 1B10.1_GS_9E8.4 (bispecific antibody, human IgG1, kappa, L234A L235A) heavy: EVQLVESGGGLVQPGGSLRLSCAASGFSFSKYDMAWFRQAPGKGLEWVASITTSGVGTYYRDSVKGRFTVSRDNAKSTLYLQMNSLRAEDTAVYYCARGYGAMDAWGQGTTVTVSSGGGGSGGGGSEVTLRESGPALVKPTQTLTLTCTFSGFSLSTYGMGVGWIRQPPGKALEWLANIWWDDDKYYNPSLKNRLTISKDTSKNQVVLTMTNMDPVDTATYYCARIESIGTTYSFDYWGQGTMVTVSSASTKGPSVFPLAPSSKSTSGGTAALGCLVKDYFPEPVTVSWNSGALTSGVHTFPAVLQSSGLYSLSSVVTVPSSSLGTQTYICNVNHKPSNTKVDKKVEPKSCDKTHTCPPCPAPEAAGGPSVFLFPPKPKDTLMISRTPEVTCVVVDVSHEDPEVKFNWYVDGVEVHNAKTKPREEQYNSTYRVVSVLTVLHQDWLNGKEYKCKVSNKALPAPIEKTISKAKGQPREPQVYTLPPSREEMTKNQVSLTCLVKGFYPSDIAVEWESNGQPENNYKTTPPVLDSDGSFFLYSKLTVDKSRWQQGNVFSCSVMHEALHNAYTQKSLSLSPGK light: DIQMTQSPSSLSASVGDRVTITCKASQDIDDYLSWYQQKPGKSPKLVIYAATRLADGVPSRFSGSGSGTDYTLTISSLQPEDFATYYCLQSSSTPWTFGGGTKVEIKGGSGGGGSGGEFVLTQSPGTLSLSPGERATLSCERSSGDIGDSYVSWYQQKPGQAPRLVIYADDQRPSGIPDRFSGSGSGTDFTLTISRLEPEDFAVYYCQSYDINIDIVFGGGTKVEIKRTVAAPSVFIFPPSDEQLKSGTASVVCLLNNFYPREAKVQWKVDNALQSGNSQESVTEQDSKDSTYSLSSTLTLSKADYEKHKVYACEVTHQGLSSPVTKSFNRGEC
